Test results as given in patent publication US20160116469A1 (INSTITUTE OF ARTHRITIS RESEARCH, published 2016).

Target: human TLR4 (human, UniProt O00206 24-839)
Assay: cell-based or functional assay

Sequence of human TLR4 (O00206 24-839): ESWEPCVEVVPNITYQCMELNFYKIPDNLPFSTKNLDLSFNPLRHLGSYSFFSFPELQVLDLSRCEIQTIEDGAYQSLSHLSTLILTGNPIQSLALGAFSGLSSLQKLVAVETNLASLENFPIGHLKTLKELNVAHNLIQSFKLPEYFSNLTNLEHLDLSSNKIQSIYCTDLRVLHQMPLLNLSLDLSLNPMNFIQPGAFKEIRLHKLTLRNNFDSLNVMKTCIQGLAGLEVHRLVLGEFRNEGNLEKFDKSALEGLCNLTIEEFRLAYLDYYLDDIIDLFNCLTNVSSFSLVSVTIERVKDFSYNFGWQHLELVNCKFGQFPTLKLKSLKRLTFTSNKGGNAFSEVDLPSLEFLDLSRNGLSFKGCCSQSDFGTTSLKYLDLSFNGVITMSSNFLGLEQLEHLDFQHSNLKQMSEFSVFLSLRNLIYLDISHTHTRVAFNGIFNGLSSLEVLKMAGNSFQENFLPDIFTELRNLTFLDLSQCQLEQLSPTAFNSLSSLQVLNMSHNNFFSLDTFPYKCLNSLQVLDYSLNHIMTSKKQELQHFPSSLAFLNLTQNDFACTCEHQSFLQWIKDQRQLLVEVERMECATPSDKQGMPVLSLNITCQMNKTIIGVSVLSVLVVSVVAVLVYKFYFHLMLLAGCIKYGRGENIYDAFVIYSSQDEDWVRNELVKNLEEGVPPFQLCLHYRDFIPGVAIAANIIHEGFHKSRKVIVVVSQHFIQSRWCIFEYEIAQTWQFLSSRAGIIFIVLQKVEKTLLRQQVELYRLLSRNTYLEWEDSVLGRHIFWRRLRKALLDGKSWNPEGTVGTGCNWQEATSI

NF-κB-driven SEAP reporter, human TLR4-transfected HEK293 cells, response relative to E. coli K12 LPS at 100 ng/ml: 10 % of the response to E. coli K12 LPS
B1: PeptideX2 (peptide)
peptide: KSIAYLQMNSLK
